# According to IntAct's records for PubMed 23183827:
# Target: syua_human SNCA (UniProt P37840)
substance,measurement,value
"Leucine-rich repeat serine/threonine-protein kinase 2 (Homo sapiens), Q5S007 G2019S",effect of a mutation on the interaction,increasing interaction
